Measured values: US20020064828A1

biological target: full-length human presenilin 2 (PS2) expressed in HeLa cells (human) (UniProt P49810); assay: cell-based or functional assay

Substance	cell death (floating HeLa cells), fold, on coexpression with PS2
calmyrin-EF-C mutant (E172Q) (from UniProt Q99828 2-191)	1.05 fold
calmyrin-EF-N mutant (D127N) (from UniProt Q99828 2-191)	1 fold
calmyrin-MYR mutant (G2A, myristoylation-deficient calmyrin) (from UniProt Q99828 3-191)	< 2.09 fold
